Tests used:
[1] = target: CD38 TALEN Right (artificial) (UniProt Q56830); test: cell_activity; settings: paired with CD38 TALEN Left; simultaneous electroporation with TRAC and CD52 TALEN
[2] = target: CD38 TALEN Left (artificial) (UniProt Q56830); test: cell_activity; settings: paired with CD38 TALEN Right; simultaneous electroporation with TRAC and CD52 TALEN

CD38 right half-site
activity (% CD38-negative cells) [1]: 66.1

CD38 left half-site
activity (% CD38-negative cells) [2]: 66.1

From US20200208174
